The text below walks through data of patent publication US20140378657A1.

Experiment [1] has as its target biotinylated maltose binding protein (MBP-AviTag fusion, Avidity, LLC) [MBP: P0AEX9]. Description: SPR (BIAcoreX), biotinylated MBP-AviTag as immobilised ligand. In general terms: In SPR one partner is held on a chip, and binding of the other changes the refractive index at the surface.
Experiment [2] has the same target. Description: affinity column, elution with 5 mM d-biotin.
The target is the same in experiment [3]. Description: SPR, biotinylated MBP row of Table 2; footnote: value determined by the surface plasmon resonance method described in Qureshi and Wong (2002).

wild-type streptavidin, sequence (P22629 25-183 limits assumed): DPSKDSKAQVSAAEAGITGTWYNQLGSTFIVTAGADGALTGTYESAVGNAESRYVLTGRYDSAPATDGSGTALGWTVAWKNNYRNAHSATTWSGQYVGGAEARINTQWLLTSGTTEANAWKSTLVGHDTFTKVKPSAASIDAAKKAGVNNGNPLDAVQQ

On to “streptavidin mutein SBPM18 (S27A, G48T) (designed binder)”, for which, in experiment [1], the Kd was 0.0115 µM; the koff – broadly, the rate constant with which the complex falls apart – is 0.00265 s⁻¹; the kon – broadly, the second-order rate constant of association – worked out at 230000 M⁻¹ s⁻¹. In experiment [2], the recovery from affinity column was determined as 90%.

In experiment [3], “wild-type streptavidin (from UniProt P22629 25-183)” came in with an association rate constant (kon) of 5.13e+06 M⁻¹ s⁻¹.
